The values that follow come from publication PMC6592559.

Ends that are not written are not given here.

The assay addresses T1, PDF receptor (PDFR), endogenous in the insulin producing cells (Drosophila melanogaster (endogenous in fly brain)) (UniProt Q9W4Y2).
T1 sequence: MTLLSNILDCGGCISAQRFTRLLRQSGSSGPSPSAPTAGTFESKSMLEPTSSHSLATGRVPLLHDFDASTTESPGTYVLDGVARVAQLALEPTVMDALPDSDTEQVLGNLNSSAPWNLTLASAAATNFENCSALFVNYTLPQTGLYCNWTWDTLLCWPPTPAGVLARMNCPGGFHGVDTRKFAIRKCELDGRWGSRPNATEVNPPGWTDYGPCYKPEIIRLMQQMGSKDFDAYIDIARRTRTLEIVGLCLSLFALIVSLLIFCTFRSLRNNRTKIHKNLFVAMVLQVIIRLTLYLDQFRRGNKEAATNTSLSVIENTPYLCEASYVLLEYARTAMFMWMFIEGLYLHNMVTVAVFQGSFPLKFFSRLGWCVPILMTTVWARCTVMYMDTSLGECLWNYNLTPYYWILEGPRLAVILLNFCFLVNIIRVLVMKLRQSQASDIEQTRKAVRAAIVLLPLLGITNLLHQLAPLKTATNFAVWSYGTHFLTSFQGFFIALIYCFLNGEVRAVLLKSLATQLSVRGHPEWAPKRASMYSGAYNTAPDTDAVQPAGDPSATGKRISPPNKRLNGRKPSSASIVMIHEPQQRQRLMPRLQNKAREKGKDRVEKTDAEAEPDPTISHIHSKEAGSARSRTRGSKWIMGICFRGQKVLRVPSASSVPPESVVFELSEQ

Take NSELINSLLSLPKNMNDA-NH2 [Pigment Dispersing Factor (PDF), synthetic peptide]: the cAMP FRET signal (Epac1camps) in the IPCs of dissected brains, 10 uM PDF bath-applied, 100-1000 s, against the HL3 negative control; no increase in the PDFR-null han mutant was determined as 10%.
